Where no end group is shown, it is not given here. [ ]: non-standard residue; d: D form. The star is where a group is joined. FITC = O=C1OC2(c3ccc(O)cc3Oc3cc(O)ccc32)c2ccc(NC(=S)*)cc21; pT = C[C@@H](OP(=O)(O)O)[C@H](N)C(=O)O
What was measured:
[1] = biological target: T1, Bmh1 (S. cerevisiae 14-3-3 isoform) (S. cerevisiae, UniProt P29311 1-267); test: fluorescence polarisation
T1 sequence (looked up): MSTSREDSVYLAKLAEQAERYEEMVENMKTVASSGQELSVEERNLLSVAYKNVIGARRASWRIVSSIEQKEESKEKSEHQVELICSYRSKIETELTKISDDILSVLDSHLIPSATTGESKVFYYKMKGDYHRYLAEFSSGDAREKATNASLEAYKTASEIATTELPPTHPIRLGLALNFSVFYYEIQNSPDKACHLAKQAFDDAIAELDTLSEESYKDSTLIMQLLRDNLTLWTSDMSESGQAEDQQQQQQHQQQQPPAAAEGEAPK

[2] = biological target: T2, Bmh2 (S. cerevisiae 14-3-3 isoform) (S. cerevisiae, UniProt P34730 1-273); test: fluorescence polarisation
T2 sequence (looked up): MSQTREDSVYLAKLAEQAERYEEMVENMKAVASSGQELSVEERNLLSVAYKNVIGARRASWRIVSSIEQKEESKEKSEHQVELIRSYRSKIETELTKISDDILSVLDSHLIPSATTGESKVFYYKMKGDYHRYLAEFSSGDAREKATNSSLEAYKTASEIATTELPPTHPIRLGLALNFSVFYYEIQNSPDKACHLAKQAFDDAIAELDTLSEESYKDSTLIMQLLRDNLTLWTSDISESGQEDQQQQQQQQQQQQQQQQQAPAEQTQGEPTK

Kd [1]: 4 µM | Kd [2]: 3.4 µM
B1: FITC-labeled synthetic Trk1 peptide (FITC-RRCFpTLLFP) with phosphorylated Thr900 (peptide)
peptide: {FITC}-RRCF[pT]LLFP

— PMC10165143 (Computational and Structural Biotechnology Journal, 2023)
